Experimental data from publication PMC9311411, “A Morphing [4Fe‐3S‐nO]‐Cluster within a Carbon Monoxide Dehydrogenase Scaffold” (Angewandte Chemie (International Ed. in English), 2022).

Substrate: NO
Assay: reoxidation of reduced methyl viologen
Format: biochemical, Carboxydothermus hydrogenoformans
Settings: 0-100 mM NH2OH; reduced methyl viologen as artificial electron donor; two-electron reduction to ammonia and water
Excerpt: reoxidation of reduced methyl viologen on CooS‐V Ch | hyperbolic dependency on the NH2OH concentration (Figure S2‐C)

B1: CooS‐V Ch (Carboxydothermus hydrogenoformans Z-2901) (protein)
chain: MATKTSIHPSVNELYQRLAEDQLSNCFDRFDPQEKIRCNYCELGVSCQLCSNGPCRINEKVGATLGVCGINADGMAMRYMLLRNVMGTSTYTYHAYEAYKTLKMTALGNTPFTITDKDKLYQMAKDLELNTEGKPEDVAVRLSDFLIWELYRDYDEPGKMIEVYAPLKRKEVWRKLGIYPAGPLHELKDAAASCLTNVDGDYVSLATKGLRLGLSCIYGAQIGLELVQDILFGTGMPHEMDVDLGIFDADYINIVFNGHEPFVGVALILAAKEAVNQDKAKAAGAKSLRIYGSIESGQEVVQRFQKDEVFRGLTGNWLTIEPMLATGAVDVLAMDMNCSPPNLGPLAEKYGATLVSVSRLVRFPGIHHFLDYKPSEVREIAQKIIDIAVDSFKNKRHGKITPKIPANIQKAITGFTPEAILKALGGSINPLIEVIKAGKIKGAVGLINCTTLKNGPQDYVTVNLAKELIKRDILILSGGCGNHALEVAGLCNLDAINLAGPGLSEVCRNLNIPPVLSFGTCTDTGRISLVVTALANALNVDTADLPVAVTAPMYMEQKATIDALFALAYGLYTHVAPDPPVMGAPNLVKLLTRDLPSITGGRIAVGSDPVKVADDILAHINDRRAKLGI
notes: full length, 629 residues; homodimer, apparent 118 kDa; [2Fe-2S], [4Fe-4S] and Fe/S/O hybrid cluster, no Ni
Protein B1 has a Km of 7.6 ± 2.0 mM and a kcat of 0.13 s–1.
